Laboratory results as given in patent US20230250157A1 (CALIFORNIA INSTITUTE OF TECHNOLOGY, published 2023).

Assays:
SARS-CoV RBD [1] = target: T1, SARS-CoV RBD (SARS-CoV, UniProt P59594 318-510); test: Beacon optofluidic screen: IgG secreted by single B cell, RBD on beads
SARS-CoV-2 WA1 RBD [2] = target: T2, SARS-CoV-2 WA1 RBD (SARS-CoV-2 WA1, UniProt P0DTC2 319-539); test: as above
T2 construct: range 319-539

SARS-CoV RBD [3] = target: T1, SARS-CoV RBD; test: ELISA, coated RBD, purified IgG
SARS-CoV-2 WA1 RBD [4] = target: T2, SARS-CoV-2 WA1 RBD; test: X-ray crystallography of SEC-purified Fab-RBD complex (PDB 7UZC)
SARS-CoV-2 WA1 RBD [5] = target: T2, SARS-CoV-2 WA1 RBD; test: ELISA, purified IgG
SARS-CoV-2 WA1 RBD [6] = target: T2, SARS-CoV-2 WA1 RBD; test: X-ray crystallography of SEC-purified Fab-RBD complex
SARS-CoV-2 WA1 RBD [7] = target: T2, SARS-CoV-2 WA1 RBD; test: X-ray crystallography of SEC-purified Fab-RBD complex (PDB 7UZD)

Binder	binding result (SARS-CoV RBD [1])	binding result (SARS-CoV-2 WA1 RBD [2])	other results
M8a-7 (antibody, V domains shown) VH: QAYLQQSGAEMVRPGASVKMSCKASGYTFNNYNMHWVKQTPSQGLEWIGGFYPGNDDTAYSQKFKGKATLTVDKSSSTAFMHLSSLTSEDSAVYFCARSLGRYYAMDYWGQGTSVTVSS VL: not shown	binds	–	–
M8a-25 (antibody, V domains shown) VH: EVQLQQSVAELVRPGASVKLSCTASGFNIKNTYMHWVKQRPEQGLEWIGRIDPSIDHTRYAPKFQGKAVITAFTSSNTAYLQLSSLTSEDTAIYYCAREGGGNYPYYYAIDYWGQGTSVTVSS VL: DIQMTQSSSSFSVSLGDRVTITCKASEDIYIRLAWYQQRPGNAPRLLISNAISLETGVPSRFSGSGFGKDHTLSITSLQTEDVATYYCQQYWSTPWTFGGGTKLEIK	binds	–	–
M8a-28 (antibody, V domains shown) VH: QVQLQQPGAELVKPGASVKMSCKASGYNFNHYWISWVKQRPGQGLEWIGDIYPLSHFTTYNEKFTNRATLTVDTSSTTAYMQLNSLTSDDSAVFYCARWDYFDSRTFDYWGQGTTLTVSS VL: DILLTQFPAILSVSPGERVSFSCRASQTIGTNIHWYQQRINGSPRLLIKYASESISGIPSRFSGSGSGTDFSLSINNVESEDIADYYCQQINSWPLTFGAGTKLDLK	binds	–	–
HSW-1 (antibody, V domains shown) VH: QVQLQQPGAELVKPGTSMKLSCKASGYTFTSYWMHWVKQRPGQGLEWIGMIHPNSGSTKYNENFKSKATLTVDKSSSTAYMQFSSLTSEDSAVYYCVRSGSYYGTTYDYFDYWGQGTTLTVSS VL: DIVLTQSPASLAVSLGQRATISCRASESVNIYGNSFMHWYQQKPGQPPKLLIFRASNLESGIPVRFSGSGSRTDFTLTINPVEADDVATYYCHQSNEDPFTFGSGTKLEIK	–	binds	binding result (SARS-CoV RBD [3]): no binding (tested: up to 100 µg/mL IgG)
M8a-34 Fab (Fab, V domains shown) VH: QVQLQQPGAELVKPGASVKMSCKASGYTFITYWITWVKQRPGQGLEWIGDIYPGGGRTNYNEKFKSKATLTVDTSSSTAYMQLRSLTSEDSAVYYCARYDGNYVGYYYAMDYWGQGTSVTVSS VL: DIVLTQSPVSLAVSLGQRATISCRASESVDFYGNSFIYWYQQKPGQAPKLLIYRASNLESGIPARFSGSGSRTDFTLTIHPVEADDVATYYCQQSIEDPRTFGGGTKLEIK	–	–	binding result (SARS-CoV-2 WA1 RBD [4]): binds
M8a-34 (antibody, V domains shown) VH: QVQLQQPGAELVKPGASVKMSCKASGYTFITYWITWVKQRPGQGLEWIGDIYPGGGRTNYNEKFKSKATLTVDTSSSTAYMQLRSLTSEDSAVYYCARYDGNYVGYYYAMDYWGQGTSVTVSS VL: DIVLTQSPVSLAVSLGQRATISCRASESVDFYGNSFIYWYQQKPGQAPKLLIYRASNLESGIPARFSGSGSRTDFTLTIHPVEADDVATYYCQQSIEDPRTFGGGTKLEIK	binds	binds	–
M8a-31 (antibody, V domains shown) VH: EVQLKQSVAELVRPGASVKVSCTASGFNIKNIYMHWVKQRPEQGLDWIGRIDPANGNSRYAPKFQDKATITADTSSNTAYLQLSSLTSEDTAIYYCADEGWGFANWGQGTLVTVSA VL: DIVMTQSPSSLTVTAGEKVTMSCKSSQSLLNSGNQKNYLTWYQQKVGQPPKLLIYWASTRDPGVPDRFTGSGFGTDFTLTISSVQAEDLAVYYCQNDYSYPLTFGAGTKVELK	binds	–	binding result (SARS-CoV-2 WA1 RBD [5]): binds
M8a-6 (antibody, V domains shown) VH: QVQLQQPGTELVMPGASVKLSCKTSGYTFTHYWMHWVKQRPGEGLEWIGEIAPSDNYVKYNQKFKGKSTLSVDRSSSTAYMQLSSLTSEDSAVYFCARPDNSGYPVYFDYWGQGTSLTVSS VL: DIVMTQSQKFMSTSLGDRVSISCKASQDVGTTVAWYQQKPGQSPKLLIYWASTRHTGVPDRFTGTGSGTDYTLTISSVAAEDLALYYCQQHYNTPYTFGGGTKLEIE	–	binds	–
M8a-6 Fab (Fab, V domains shown) VH: QVQLQQPGTELVMPGASVKLSCKTSGYTFTHYWMHWVKQRPGEGLEWIGEIAPSDNYVKYNQKFKGKSTLSVDRSSSTAYMQLSSLTSEDSAVYFCARPDNSGYPVYFDYWGQGTSLTVSS VL: DIVMTQSQKFMSTSLGDRVSISCKASQDVGTTVAWYQQKPGQSPKLLIYWASTRHTGVPDRFTGTGSGTDYTLTISSVAAEDLALYYCQQHYNTPYTFGGGTKLEIE	–	–	binding result (SARS-CoV-2 WA1 RBD [6]): binds
M8a-3 (antibody, V domains shown) VH: QVQLQQPGAELVLPGASVKLSCKASGYTFTNYWMHWVKQRPGHGLEWIGEIDPFDTYIKINQKFKGKSTLTVDTSSSTAYMQLSSLTSEDSAVYYCARPDSSGYPVYFDYWGQGTTLTVSS VL: DIVMTQSHKFMSTSVGDRVSITCKASQDVGTYIAWYQQKPGQSPKLLIYWASTRHTGVPDRFTGSGSGTNYTLTISSVQAEDLALYHCQQHYSTPYTFGGGTKLEIK	binds	–	–
HSW-2 Fab (Fab, V domains shown) VH: QVQLQQSGPELVKPGASVKISCKASGYVFSTSWMSWVKQRPGEGPEWIGRIYPRDGHSSSTGKFKDKATLTADKSSNTAYIHLSSLTSEDSAVYFCARDYGYYYFDYWGQGTTLTVSS VL: DIQMTQSPASLSASVGEAVTITCRLSENVYSFLAWYQQKQGKSPQLLVYRAKTLAEGVPSRFSGSGSGTQFSLKINSLQPEDFGTYYCQHHYGTPPTFGGGTKLEIK	–	–	binding result (SARS-CoV-2 WA1 RBD [7]): binds
HSW-2 (antibody, V domains shown) VH: QVQLQQSGPELVKPGASVKISCKASGYVFSTSWMSWVKQRPGEGPEWIGRIYPRDGHSSSTGKFKDKATLTADKSSNTAYIHLSSLTSEDSAVYFCARDYGYYYFDYWGQGTTLTVSS VL: DIQMTQSPASLSASVGEAVTITCRLSENVYSFLAWYQQKQGKSPQLLVYRAKTLAEGVPSRFSGSGSGTQFSLKINSLQPEDFGTYYCQHHYGTPPTFGGGTKLEIK	–	binds	binding result (SARS-CoV RBD [3]): no binding (tested: up to 100 µg/mL IgG)
